According to US20030092613A1, “Alpha7 nicotinic receptor peptides as ligands for beta amyloid peptides” (priority 2000, published 2003):

Biological target: β-amyloid1-42 (UniProt P05067)
Test: cell-based or functional assay

cyclic peptide (Ac)ECCK-amide was tested, and the ACh rel % Inh @ 100 µM was 87%.
